B1: Hairpin Ribozyme (parent)
chain: GUCCUCUUUCACGUGCGCGUGAAAGAGAGAAGUGAACCAGAGAAACACACGUUGUGGUAUAUUACCUGGUA

The variants in the series derive from B1. The series is described as follows: self-cleavage, relative activity (ratio to wild type); higher = more cleavage; co-transcriptional.
On to U14C A64U, for which the self-cleavage is 0.199.
With G15A A59C, the self-cleavage came out at 0.182.
Regarding G15A A59U, the self-cleavage stood at 0.213.
In the case of G15U C66G, the self-cleavage came out at 0.183.
With G15U U67C the figure was 0.267; with U14G C65U, 0.316.
With U14C A36U, the self-cleavage was determined as 0.844.
Regarding U14C A36C, the self-cleavage amounted to 0.476.
Take U14C A36G: the self-cleavage turned out to be 1.44.
For the variant C16A C66U, the self-cleavage came out at 0.416.
For the variant U14G U20C, the self-cleavage worked out at 0.992.
U14G U20A: the self-cleavage came to 0.866.
For the variant G15A G25C, the self-cleavage worked out at 0.491.
Regarding G15A U20G, the self-cleavage is 0.85.
With C16A G17U the figure was 0.944; with G15A G40U, 0.111; with G15A G27C, 0.146.
On to U14G A43G, for which the self-cleavage came to 0.0894.
In the case of U14G A43U, the self-cleavage was 0.186.
On to U14G A31C, for which the self-cleavage is 0.267.
On to G15A C37A, for which the self-cleavage is 0.388.
With G15A C37U, the self-cleavage was found to be 0.699.
G15A C37G: the self-cleavage came to 0.312.
Turning to U14G A41G, the self-cleavage worked out at 0.589.
In the case of G15A G68U, the self-cleavage amounted to 0.232.
Turning to U14G U62C, the self-cleavage was 0.213.
In the case of G15C G57C, the self-cleavage is 0.137.
Take U14G A64C: the self-cleavage came out at 0.27.
With U14G G34C the figure was 1.52; with U14G A71U, 0.678; with G15C A23U, 1.02.
As to G15C A23C, the self-cleavage is 0.868.
With C16A C18G the figure was 0.841; with C16A C18U, 0.98.
As to G15A G42A, the self-cleavage is 0.15.
As for G15U G51U, the self-cleavage was found to be 1.22.
With G15U G51C the figure was 1.08.
With G15U G51A the figure was 0.948; with G15C U53A, 0.792.
C16A A30G: the self-cleavage came out at 0.11.
The value for U14C C48U was 0.117; that for U14C C48A was 0.256; that for U14C A49G was 0.553.
For the variant G15U U70A, the self-cleavage came out at 0.96.
For G15A A41U, the self-cleavage was determined as 1.26.
With G15C G17U, the self-cleavage amounted to 0.959.
Take G15C A26C: the self-cleavage stood at 0.834.
Regarding G15U C16A, the self-cleavage amounted to 1.11.
Consider G15C A71C, for which the self-cleavage worked out at 1.29.
With U14C A24G the figure was 0.81; with U14C A24U, 0.545; with U14C A24C, 0.943.
For the variant C16A A39C, the self-cleavage is 0.484.
For U14G C66A, the self-cleavage is 0.0772.
The value for C16A C37A was 0.377; that for C16A C37G was 0.324; that for C16A G34A was 1.35.
For C16A C50G, the self-cleavage came to 0.24.
Consider U14G A47U, for which the self-cleavage was 0.105.
Consider C16A A47U, for which the self-cleavage came to 0.0731.
Regarding C16A A47C, the self-cleavage was determined as 0.365.
Turning to G15U U33C, the self-cleavage is 0.178.
Consider U14G C50G, for which the self-cleavage was 0.2.
Regarding U14G C50U, the self-cleavage was 0.2.
The value for G15C A35G was 1.08.
Turning to U14G U53A, the self-cleavage was 0.835.
For U14G A26C, the self-cleavage was 0.522.
Consider U14G A26U, for which the self-cleavage amounted to 0.549.
G15U G57A: the self-cleavage came out at 0.153.
With G15U G57U the figure was 0.296.
For G15C C48A, the self-cleavage came out at 0.121.
As for U14C G69A, the self-cleavage amounted to 0.341.
For the variant G15A U52G, the self-cleavage was determined as 0.641.
As for U14C G51U, the self-cleavage was 1.07.
U14C G51A: the self-cleavage was found to be 0.854.
With U14G A39U the figure was 0.285; with G15U G29A, 0.0502; with U14C G21A, 0.865.
With U14G C18U the figure was 0.7; with G15U G68U, 0.329; with G15U G68A, 0.387.
For G15C G34C, the self-cleavage was 0.578.
Take G15C G34A: the self-cleavage came out at 1.02.
Take G15A G69A: the self-cleavage was found to be 0.362.
The value for G15A G69U was 0.217; that for U14G G40C was 0.111.
In the case of U14G U58A, the self-cleavage came out at 0.753.
With C16A G27C, the self-cleavage stood at 0.218.
As for C16A G27U, the self-cleavage worked out at 0.202.
For U14C A61G, the self-cleavage was 0.133.
U14C A61C: the self-cleavage is 0.162.
Turning to U14C C50A, the self-cleavage was found to be 0.0893.
With U14C G25C, the self-cleavage was 0.728.
With U14C G25A the figure was 0.734.
G15C G25U: the self-cleavage was determined as 0.637.
On to G15C G25A, for which the self-cleavage was determined as 0.607.
Turning to G15U G19U, the self-cleavage was 0.853.
Turning to U14C U62A, the self-cleavage amounted to 0.142.
Take U14C U62C: the self-cleavage was determined as 0.0439.
Take U14C U62G: the self-cleavage turned out to be 0.218.
With G15A U58A, the self-cleavage came to 0.533.
In the case of G15A U58G, the self-cleavage came out at 0.501.
With C16A A26U, the self-cleavage amounted to 0.607.
For the variant U14G G56C, the self-cleavage was 0.164.
The value for U14G G69C was 0.238.
On to G15A A45G, for which the self-cleavage was 0.17.
Consider G15C A59C, for which the self-cleavage came out at 0.146.
Regarding G15C A59U, the self-cleavage amounted to 0.224.
As for U14A U63A, the self-cleavage worked out at 0.162.
Take U14G U67C: the self-cleavage turned out to be 0.145.
Take U14G U67A: the self-cleavage was determined as 0.186.
Take G15C G51U: the self-cleavage was 0.91.
On to G15A G29C, for which the self-cleavage worked out at 0.106.
Turning to G15U G56U, the self-cleavage was 0.0866.
For the variant G15U A39G, the self-cleavage was determined as 0.245.
Regarding C16A A43U, the self-cleavage is 0.0656.
As for G15C A45C, the self-cleavage was 0.18.
The value for G15A G32U was 0.0825; that for G15A G32A was 0.145; that for U14G A23G was 0.703.
With C16A A36U the figure was 0.554; with C16A A36G, 1.1.
G15U A61C: the self-cleavage is 0.261.
The value for G15C A22U was 1.01; that for U14G G54A was 0.439.
G15A A47C: the self-cleavage came to 0.302.
In the case of U14C A45U, the self-cleavage was 0.119.
With G15U G40U, the self-cleavage turned out to be 0.206.
As for G15U G40A, the self-cleavage amounted to 0.335.
For the variant G15U A28U, the self-cleavage was found to be 0.765.
In the case of U14G G51C, the self-cleavage was 0.734.
As for C16A A61C, the self-cleavage was determined as 0.359.
Consider C16A A61G, for which the self-cleavage is 0.203.
G15A C66U: the self-cleavage is 0.35.
In the case of G15A C18U, the self-cleavage is 1.05.
The value for G15C G42U was 0.19.
G15U U63A: the self-cleavage amounted to 0.164.
For U14C A26U, the self-cleavage turned out to be 0.418.
Turning to U14C A26C, the self-cleavage amounted to 0.727.
In the case of U14C A26G, the self-cleavage was found to be 0.919.
The value for G15C U58G was 0.493.
The value for U14G U70G was 0.659.
Turning to U14G U70C, the self-cleavage was found to be 1.13.
The value for U14G G25U was 0.492; that for U14G G25C was 0.312; that for G15A A44C was 0.143.
As for G15A A44U, the self-cleavage came to 0.196.
For the variant U14G A36G, the self-cleavage was found to be 1.11.
On to G15A U55C, for which the self-cleavage was 0.225.
Take G15C C66G: the self-cleavage came out at 0.0808.
G15C C16U: the self-cleavage was found to be 1.29.
For the variant G15A U33C, the self-cleavage came out at 0.117.
Turning to G15A U33A, the self-cleavage is 0.0921.
On to U14C G29A, for which the self-cleavage turned out to be 0.0903.
For the variant G15U A30U, the self-cleavage is 0.146.
Take U14G G42C: the self-cleavage is 0.101.
With G15C A64G the figure was 0.532; with G15C A64C, 0.162.
The value for U14C G27A was 0.423; that for G15U G25A was 0.703; that for U14G C46G was 0.131.
On to G15U C50A, for which the self-cleavage amounted to 0.274.
G15U A43U: the self-cleavage worked out at 0.104.
In the case of G15U A43G, the self-cleavage is 0.151.
The value for U14C U60C was 1.13.
For G15A A30G, the self-cleavage came out at 0.187.
Consider U14C U63G, for which the self-cleavage is 0.0837.

Values taken from the RNAGym collection of RNA variant scans (doi:10.7554/elife.80360).
